In the supplement of paper PMC10126150:
± gives the standard deviation of the averaged measurements.

Tested on: ATP
Experiment: switch fluorescence ratio, 500 uM ATP over buffer (Cy3 cluster intensity, sum of 5 cycles each) (fold (ratio)); higher = stronger signal-on switching upon ATP binding; sequences stand for … in TCGTCGGCAGCGTCAGATGTGTATAAGAGACAGTTTTTTTTTTTTTTTTTTTTTTTTT…TC
Conditions: aptamer strand: ATP DNA aptamer (quencher-CACCTGGGGGAGTATTGCGGAGGAAGG + anchor), 100 nM annealed; ATP concentration: 500 uM
Outline: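 Cy3-labelled switching-strand clusters on a modified Illumina MiSeq flow-cell were annealed to 100 nM quencher-labelled ATP aptamer and imaged first in selection buffer, then after 15 min with 500 uM ATP at 22 °C. NaOH stripping and re-annealing separated each of five buffer/ATP cycles, and clusters outside 100-1000 RFU were excluded. The fluorescence ratio sums target-cycle Cy3 intensity over buffer-cycle Cy3 intensity per cluster and averages it per switch-domain sequence.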
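Also: ATP exposure 15 min at 22 °C before imaging.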

| Sequence | switch fluorescence ratio |
| --- | --- |
| GTGGTTCTGA | 1.03 ± 0.024 |
| GTGGTTCTGG | 1.01 ± 0.018 |
| GTGGTTGCGG | 0.987 ± 0.04 |
| GTGGTTTGGT | 0.979 ± 0.035 |
| GTGGTTTGTG | 1 ± 0.011 |
| GTGTAACGTT | 1 ± 0.042 |
| GTGTAAGTAG | 0.997 ± 0.024 |
| GTGTACCCGT | 0.96 ± 0.035 |
| GTGTACGGTG | 1.01 ± 0.013 |
| GTGTAGGCTT | 1 ± 0.015 |
| GTGTAGGGGT | 0.9779 ± 0.0083 |
| GTGTATATAC | 0.993 ± 0.013 |
| GTGTATGCAA | 1.03 ± 0.029 |
| GTGTATGGGG | 0.968 ± 0.063 |
| GTGTATGTTG | 0.9976 ± 0.0067 |
| GTGTATTGGG | 0.993 ± 0.025 |
| GTGTCATTTT | 0.991 ± 0.025 |
| GTGTCCACAG | 1 ± 0.014 |
| GTGTCTCCAG | 1.03 ± 0.049 |
| GTGTGAAATC | 0.987 ± 0.043 |
| GTGTGAAGGT | 0.991 ± 0.032 |
| GTGTGACAGA | 1.01 ± 0.014 |
| GTGTGACTTC | 0.988 ± 0.018 |

| Sequence | switch fluorescence ratio |
| --- | --- |
| GTGTGATGTG | 0.9681 ± 0.0051 |
| GTGTGCAGGG | 0.945 ± 0.031 |
| GTGTGCCAGC | 0.969 ± 0.013 |
| GTGTGCCGGG | 0.97 ± 0.0043 |
| GTGTGCCTGG | 0.985 ± 0.055 |
| GTGTGCTGCA | 1.03 ± 0.092 |
| GTGTGTAATT | 1.01 ± 0.059 |
| GTGTGTTCTT | 1.014 ± 0.008 |
| GTGTTAACCT | 1.25 ± 0.045 |
| GTGTTAACGG | 0.982 ± 0.017 |
| GTGTTAGAAG | 0.9749 ± 0.0015 |
| GTGTTAGCGA | 0.997 ± 0.045 |
| GTGTTAGTAC | 0.984 ± 0.056 |
| GTGTTATAGT | 0.993 ± 0.024 |
| GTGTTATCGG | 1 ± 0.045 |
| GTGTTATTTA | 0.977 ± 0.046 |
| GTGTTCCGTG | 1.01 ± 0.015 |
| GTGTTCGGTA | 0.9704 ± 0.0062 |
| GTGTTGAACG | 1.04 ± 0.071 |
| GTGTTGAGGC | 0.974 ± 0.05 |
| GTGTTGAGGT | 0.984 ± 0.022 |
| GTGTTTACGA | 0.984 ± 0.027 |
| GTGTTTACTT | 1.01 ± 0.021 |

| Sequence | switch fluorescence ratio |
| --- | --- |
| GTGTTTATGA | 1.06 ± 0.053 |
| GTGTTTCTAT | 1 ± 0.013 |
| GTGTTTGTGG | 0.966 ± 0.033 |
| GTGTTTGTGT | 0.983 ± 0.028 |
| GTGTTTGTTG | 0.989 ± 0.029 |
| GTGTTTTAGC | 1.009 ± 0.0098 |
| GTGTTTTCAG | 0.988 ± 0.03 |
| GTGTTTTCCA | 0.985 ± 0.036 |
| GTGTTTTGAA | 1.01 ± 0.022 |
| GTGTTTTTGG | 0.983 ± 0.022 |
| GTTAAAAAAT | 1.06 ± 0.17 |
| GTTAAAGATT | 1.001 ± 0.0083 |
| GTTAAAGCAT | 1.01 ± 0.03 |
| GTTAAAGGGC | 1.03 ± 0.034 |
| GTTAAGGGGC | 0.996 ± 0.017 |
| GTTAATGGGG | 0.986 ± 0.054 |
| GTTACATGTT | 0.993 ± 0.024 |
| GTTACCAGGT | 1.16 ± 0.097 |
| GTTACGGGGT | 0.975 ± 0.024 |
| GTTACTATTT | 1.01 ± 0.019 |
| GTTACTCTGA | 1.055 ± 0.0083 |
| GTTACTGTGG | 0.9663 ± 0.005 |
| GTTACTTGAG | 0.9985 ± 0.005 |

| Sequence | switch fluorescence ratio |
| --- | --- |
| GTTAGAATGG | 0.981 ± 0.017 |
| GTTAGCCGAA | 1.05 ± 0.032 |
| GTTAGCGAAG | 1 ± 0.019 |
| GTTAGGAGAA | 0.9807 ± 0.0092 |
| GTTAGGGCGT | 1.01 ± 0.011 |
| GTTAGGGGG | 1.02 ± 0.023 |
| GTTAGGGTTT | 0.996 ± 0.024 |
| GTTAGTAGGT | 0.994 ± 0.021 |
| GTTAGTGGTT | 1.02 ± 0.015 |
| GTTAGTGTTT | 1.01 ± 0.013 |
| GTTAGTTTGG | 1 ± 0.015 |
| GTTATAAGGA | 0.988 ± 0.019 |
| GTTATACGGG | 1.01 ± 0.024 |
| GTTATCAGAG | 0.977 ± 0.021 |
| GTTATCGGCG | 1.01 ± 0.022 |
| GTTATGAGTC | 1.02 ± 0.03 |
| GTTATGCGCC | 1.02 ± 0.028 |
| GTTATGGGTA | 0.989 ± 0.025 |
| GTTATTAGAG | 0.987 ± 0.026 |
| GTTATTCATT | 1.004 ± 0.0034 |
| GTTATTGCTC | 1.12 ± 0.19 |
| GTTATTGCTT | 0.98 ± 0.068 |
| GTTATTGTAT | 0.977 ± 0.014 |

| Sequence | switch fluorescence ratio |
| --- | --- |
| GTTATTTGCT | 0.988 ± 0.02 |
| GTTATTTTAG | 0.988 ± 0.037 |
| GTTATTTTCG | 0.987 ± 0.028 |
| GTTATTTTGA | 1.01 ± 0.017 |
| GTTCAAACGG | 0.967 ± 0.018 |
| GTTCAACTCA | 0.993 ± 0.012 |
| GTTCCCGGGA | 1.028 ± 0.0024 |
| GTTCCGCCTG | 1.094 ± 0.0043 |
| GTTCCGGGGT | 1.05 ± 0.05 |
| GTTCCTCGCT | 2.77 ± 0.33 |
| GTTCGCGGGG | 1.06 ± 0.12 |
| GTTCGGAATT | 1.031 ± 0.0013 |
| GTTCGGCGAT | 1.03 ± 0.013 |
| GTTCGGGCAT | 1.07 ± 0.026 |
| GTTCGGGGTA | 0.995 ± 0.031 |
| GTTCTCATTT | 0.995 ± 0.025 |
| GTTCTGAGGT | 1 ± 0.0014 |
| GTTCTTCAGA | 0.9705 ± 0.0056 |
| GTTCTTGAAA | 0.977 ± 0.036 |
| GTTCTTTGT | 0.9894 ± 0.0093 |
| GTTGAACCGG | 0.988 ± 0.02 |
| GTTGAATATG | 1.01 ± 0.029 |
| GTTGACGGTA | 1.01 ± 0.015 |

| Sequence | switch fluorescence ratio |
| --- | --- |
| GTTGACTCAT | 0.97827 ± 0.00051 |
| GTTGAGAGTG | 1 ± 0.049 |
| GTTGAGCGTC | 0.955 ± 0.032 |
| GTTGAGGGGG | 1.01 ± 0.047 |
| GTTGAGGGGT | 0.993 ± 0.027 |
| GTTGATTCTA | 0.988 ± 0.034 |
| GTTGATTTGC | 1.02 ± 0.089 |
| GTTGATTTTT | 0.982 ± 0.018 |
| GTTGCAAAAA | 1.18 ± 0.32 |
| GTTGCACTGG | 1.01 ± 0.011 |
| GTTGCAGTCA | 0.949 ± 0.042 |
| GTTGCATTCA | 1.01 ± 0.033 |
| GTTGCGAGGG | 1.02 ± 0.016 |
| GTTGCTAGTA | 1 ± 0.011 |
| GTTGCTATGA | 1.02 ± 0.017 |
| GTTGCTGTCA | 1.06 ± 0.043 |
| GTTGGAATCG | 0.991 ± 0.018 |
| GTTGGAATTT | 0.966 ± 0.023 |
| GTTGGACTGG | 1.01 ± 0.037 |
| GTTGGAGCAT | 1.086 ± 0.0023 |
| GTTGGAGGCG | 0.969 ± 0.049 |
| GTTGGATGGT | 0.964 ± 0.019 |
| GTTGGATTAG | 0.993 ± 0.017 |

| Sequence | switch fluorescence ratio |
| --- | --- |
| GTTGGCATTA | 1.03 ± 0.023 |
| GTTGGGAAGA | 1.01 ± 0.034 |
| GTTGGGAGCA | 1.004 ± 0.0072 |
| GTTGGGAGGT | 0.982 ± 0.015 |
| GTTGGGATTC | 0.986 ± 0.049 |
| GTTGGGGCGT | 0.97 ± 0.044 |
| GTTGGGGGAA | 0.983 ± 0.023 |
| GTTGGGGTAA | 0.9927 ± 0.0067 |
| GTTGGGGTGG | 1.04 ± 0.12 |
| GTTGGGTACT | 0.998 ± 0.037 |
| GTTGGGTTCC | 1.02 ± 0.02 |
| GTTGGGTTCT | 1.03 ± 0.021 |
| GTTGGGTTGC | 0.999 ± 0.018 |
| GTTGGTAATT | 0.987 ± 0.015 |
| GTTGGTATGA | 0.989 ± 0.017 |
| GTTGGTATT | 1.01 ± 0.024 |
| GTTGGTCCTT | 0.9928 ± 0.003 |
| GTTGGTCGGG | 1.02 ± 0.037 |
| GTTGGTGTGT | 0.9667 ± 0.0071 |
